The test has as its target human F0F1-ATP synthase (complex V) (human). In words: cell-based or functional assay.

B1: mature CrATP6F polypeptide (Chlamydomonas reinhardtii ATPase 6 subunit of F0F1-ATP synthase with C-terminal FLAG epitope tag, after cleavage of the … (protein)
chain: STAAQVQSGATVNSLLLGIYRFWRSQAPMDKPHAPVDDRMLPAIVDASDNRAALGTWATALFCTILASNLLGLVPTNEAPTSGLGFATGLGVSVWATATTLGLYKLGFSFPGHFIPGGTPWPMAFIFVPLETISYTFRAVSLGVRLWVNMLAGHTLLHILTGMALALPFSLSFFAMVPATFAVACLLSALVGLEYLVAVLQSGVFSILSTVYVGEFNSVKLAGPLAKVVKKALDYKDDDDK
Consider B1, for which the mitochondrial (oligomycin-sensitive) ATP synthesis in mutant (8993G) cybrids stably transfected with pCrA6F, against untransfected mutant cybrids is 75%.

Values taken from patent US20060142223A1.
